Results from doi:10.64898/2025.12.30.697096 (bioRxiv, 2025).
No end group written: not given here. *: point of attachment. MTSL = nitroxide spin label, CC1(C)C=C(CS*)C(C)(C)N1[O]

B1: Glu3-tagged Bax α9 peptide (Bax residues Gly166 to Gly192) (peptide, UniProt Q07812 166-192, looked up)
chain: GTPTWQTVTIFVAGVLTASLTIWKKMG

How the values were obtained:
[1] = molecular target: the molecule itself; experiment: cross-linking
[2] = molecular target: B1; experiment: NMR paramagnetic relaxation enhancement

binding result [2]	Binder	stoichiometry N [1]
	B1	2
binds	GTPTWQTVTIFVAC(MTSL)VLTASLTIWKKMG (peptide, UniProt Q07812 166-192, looked up) [Bax (α9) G179C with MTSL spin probe]	
binds	GTPTWQC(MTSL)VTIFVAGVLTASLTIWKKMG (peptide, UniProt Q07812 166-192, looked up) [Bax (α9) T172C with MTSL spin probe]	
binds	GTPTWQTVTIFVAGVLTASLTIC(MTSL)KKMG (peptide, UniProt Q07812 166-192, looked up) [Bax (α9) W188C with MTSL spin probe]	
